In test [1] the target is (4C/A)-huIL-18 (human) (UniProt Q14116). Briefly: cell-based or functional assay.
Test [2] has as its target natural human IL-18 (human) (UniProt Q14116). Put plainly: cell-based or functional assay.
The target in test [3] is 125I labeled rhuIL-18 (human) (UniProt Q14116). Put plainly: Receptor Binding Assay: inhibition of 125I-rhu-IL-18 binding to IL-18Rαβ on TNF-treated KG-1 cells.
For test [4], the target named is (4C/A)-huIL-18 (human) (UniProt Q14116). Briefly: Biacore, (4C/A)-HuIL-18. On the technique in general: Surface plasmon resonance follows binding to a sensor surface in real time, without labels.
Test [5] shares this target. Put plainly: Biacore.
In the next test the target is NEM-huIL-18 (human) (UniProt Q14116). Briefly: Biacore.

By IC50 is commonly meant the midpoint of a concentration-inhibition curve. Low values mean greater potency in that assay, high ones weaker potency in that assay. In general, Kd refers to the constant that tells how readily two partners part at equilibrium. The low end stands for tighter binding, the high end for weaker binding. One may read the koff as the first-order rate constant of dissociation. A lower koff goes with a long-lived complex. Usually kon stands for a measure of how fast the partners come together. Take “IL-18BP-Fc (from UniProt O95998 31-194) (Fc fusion)”: in the test with (4C/A)-huIL-18 (human) [1], the KG-1, Neutralization Potency in vitro (IC50, nM) amounted to 0.03 nM. The substance further had a WBA, Neutralization Potency in vitro (IC50, nM) in test [2] of 5.7 nM. In test [3], this substance returned an IC50 of 1000 pM. Further, in the test with (4C/A)-huIL-18 (human) [4], the Kd was found to be 190 pM, the off-rate constant (koff) is 2.6e-05 s⁻¹ and the on-rate (kon) worked out at 140000 M⁻¹ s⁻¹. The Kd with (4C/A)-huIL-18 (human) [5] was 135 pM. This substance yielded a dissociation constant Kd with NEM-huIL-18 (human) of 98 pM.

(Values after US20050100965A1.)
